The target in the assay is T1, recombinant human FGFR3 IIIc Fc fusion protein (human, UniProt P22607 23-375).
T1 construct: Bought reagent; also called rhFGFR3 IIIc Fc; not shown: Fc fragment (removable by Factor Xa)
T1 sequence (looked up): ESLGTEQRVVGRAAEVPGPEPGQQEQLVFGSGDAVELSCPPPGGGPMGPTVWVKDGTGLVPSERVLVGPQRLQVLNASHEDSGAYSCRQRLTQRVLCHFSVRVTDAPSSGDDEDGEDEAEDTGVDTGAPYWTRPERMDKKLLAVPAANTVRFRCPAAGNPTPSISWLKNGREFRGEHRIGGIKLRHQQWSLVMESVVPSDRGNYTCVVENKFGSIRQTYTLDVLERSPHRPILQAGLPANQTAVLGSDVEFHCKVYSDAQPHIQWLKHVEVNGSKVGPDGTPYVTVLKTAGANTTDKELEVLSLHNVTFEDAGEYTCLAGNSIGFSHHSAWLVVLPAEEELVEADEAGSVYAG
Put plainly: kinetic exclusion assay (KinExA), antibody and rhFGFR3 IIIc Fc in solution, room temperature. As for the experimental part: The binding affinities of monoclonal 15D8, chimeric 15D8, and humanized 15D8 antibodies for recombinant human FGFR3 IIIc Fc fusion protein was measured using a kinetic exclusion assay, KinExA® technology (Sapidyne Instruments, Inc.). First, beads were prepared for the purpose of detecting anti-FGFR3 antibody that is unbound to FGFR3 IIIc Fc. This was done by adding 1 ml recombinant human FGFR3IIIc Fc (R&D Systems, Inc.) 10 ug/ml in PBS to 200 mg polymethyl methacrylate (PMMA) hard beads. The suspension was mixed and rotated for two hours at room temperature. Next, the mixture was centrifuged and supernatant was discarded. The bead pellet was rinsed once with 1 ml BSA 10 mg/ml in PBS by incubation for 1 hour at room temperature with rotation. The beads were resuspended in 27 ml PBS with 0.02% NaN₃. Next, a fixed concentration of anti-FGFR3 antibody (0.5 nM) was incubated in solution with a series of FGFR3 IIIc Fc concentrations (started with 50 nM (in PBS BSA (1 mg/ml)) and serially diluted 1:2 in PBS BSA(1 mg/ml) to obtain 50 to 0.0122 nM FGFR3 III Fc) at room temperature for at least 4 hours to allow equilibrium to be reached. By measuring the amount of anti-FGFR3 antibody that is not bound to FGFR3 IIIc Fc, the KD was determined. Unbound anti-FGFR3 antibody was detected by allowing the anti-FGFR3 antibody/FGFR3 IIIc Fc solution to flow through the FGFR3 IIIc Fc PMMA beads. The anti-FGFR3 antibody captured by these beads was then detected with Cy5-conjugated anti-human secondary antibody 0.3 ug/ml (Jackson ImmunoResearch) or Cy5-conjugated anti-mouse secondary antibody (Jackson ImmunoResearch) 0.5 ug/ml in PBS BSA 1 mg/ml. The detected signal for captured anti-FGFR3 antibody is directly proportional to the remaining free binding sites, thus allowing KD determination. The experiments were repeated, varying the concentrations of anti-FGFR3 antibody or FGFR3 III Fc used in solution, and the KD was calculated with the KinExA® software using n-curve analysis.
In general terms: In KinExA the mixture passes briefly over coated beads that capture the unbound partner.

As a reminder, the Kd is the equilibrium constant for the complex coming apart.

B1: Humanized 15D8 (antibody, human IgG1, kappa, V domains shown)
VH: EVQLVQSGAEVKKPGESLKISCKGSGYSFTSYNMYWVRQMPGKGLEWMGYIDPYNGGTSYNQKFKGKATLTVDKSISTAYLQWSSLKASDTAMYYCAREGGNYEAWFAYWGQGTLVTVSS
VL: DIQLTQSPSSLSASVGDRVTITCSASSSVSYMYWFQQKPGKAPKPLIYLTSYLASGVPSRFSGSGSGTDFTLTISSLQPEDFATYYCQQWSSYPLTFGGGTKVEIKR
notes: Humanized variable regions with human IgG1 and human kappa constant regions; made in 293T cells; also called Hu15D8; humanized 15D8 antibody
Turning to B1, the Kd turned out to be 0.0772 nM.
